{"source": "paper PMC3128988", "origin": "cited, not measured here", "target": "CD47 (Homo sapiens) (UniProt Q08722)", "sequence (Q08722 19-323)": "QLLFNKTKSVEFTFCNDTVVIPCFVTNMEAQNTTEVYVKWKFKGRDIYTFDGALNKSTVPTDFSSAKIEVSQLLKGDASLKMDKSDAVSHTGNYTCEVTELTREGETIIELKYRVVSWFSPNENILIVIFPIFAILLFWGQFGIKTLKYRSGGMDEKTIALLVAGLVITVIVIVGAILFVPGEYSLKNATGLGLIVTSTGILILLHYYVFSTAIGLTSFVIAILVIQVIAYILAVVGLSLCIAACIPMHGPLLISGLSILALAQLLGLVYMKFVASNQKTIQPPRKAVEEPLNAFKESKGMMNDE"}
{"substance": "SIRPα (from UniProt P78324)", "values": [{"measurement": "Kd", "result": 1000, "unit": "nM"}]}
